{"source": "patent US20230329245A1", "about": "“COMPOSITIONS AND METHODS OF USE THEREOF” (Curie Co. Inc., priority 2020, published 2023)", "molecules": {"B1": {"name": "Tgase (SEQ ID NO: 6): variant Streptomyces mobaraensis transglutaminase (SEQ ID NO:2) with N-terminal Methionine, C-terminal peptide linker and hexa-His-Tag (protein)", "chain": "MDPDDRVTPPAEPLDRMPDPYRPSYGRAETVVNNYIRKWQQVYSHRDGRKQQMTEEQREWLSYGCVGVTWVNSGQYPTNRLAFASFDEDRFKNELKNGRPRSGETRAEFEGRVAKESFDEEKGFQRAREVASVMNRALENAHDESAYLDNLKKELANGNDALRNEDARSPFYSALRNTPSFKERNGGNHDPSRMKAVIYSKHFWSGQDRSSSADKRKYGDPDAFRPAPGTGLVDMSRDRNIPRSPTSPGEGFVNFDYGWFGAQTEADADKTVWTHGNHYHAPNGSLGAMHVYESKFRNWSEGYSDFDRGAYVITFIPKSWNTAPDKVKQGWPLEHHHHHH"}}, "type_in_all_cases": "cell-based", "key": {"E. coli ATCC 8739": {"test_system": "E. coli ATCC 8739", "assay": "Growth inhibition of E. coli culture in LB (OD600 / BacTiter-Glo)", "conditions": "E. coli ATCC 8739; 950 μg/mL", "description": "For MIC determination of bacterial cultures, E. coli ATCC 8739, DH5-alpha, DH10-beta, and B. subtilis BGSC 1A1276 was grown overnight (16-18 hours) in LB broth at 37° C. The following day, the cell density of the saturated cultures was calculated using OD600 and cultures were diluted to 10^4 to 10^6 CFU/mL in sterile LB media to generate the inoculum, and 90 μL of the inoculum was combined with 10 μL of serially diluted Tgase SEQ ID NO:1 at a range of 0.0001-0.01 weight percent in the presence or absence of 0.003% lysozyme (100-fold lower than the effective concentration). Growth curves were measured by OD600 on a BioTek® Synergy Plate Reader. Optionally, the following day, a cell viability assay such as BacTiter-Glo™ (Promega®) following manufacturer's protocols) could be used to assess cell viability. A decrease in OD600 or luminescence indicated a decrease in cell viability. Results are presented as a percent reduction in cell count relative to an untreated culture. All test conditions were performed in triplicate.\nE. coli ATCC 8739 was grown overnight in LB broth at 37° C. The following day, the cell density of the saturated cultures was calculated using OD600 and cultures were diluted to 10^4 to 10^6 CFU/mL in sterile LB media to generate the inoculum, and 90 μL of the inoculum was combined with 10 μL of serially diluted Tgase SEQ ID NO:6 at a range of 0.001-0.1 weight percent in the presence or absence of chemical preservatives at concentrations above and below the calculated MIC value. A single concentration (at the MIC) of the chemical preservative and static concentrations of Tgase SEQ ID NO:6 (400 μg/mL, 0.04% w/v) are presented in Table 8 as representative examples. Growth curves were measured by OD600 on a BioTek® Synergy Plate Reader and a cell viability assay (BacTiter-Glo™, Promega®, following manufacturer's protocols) was used to assess cell viability. A decrease in OD600 or luminescence indicated a decrease in cell viability. Results are presented as a percent reduction in cell count relative to an untreated culture. […]"}, "S. aureus ATCC 6538": {"test_system": "S. aureus ATCC 6538", "assay": "MIC determination, S. aureus", "conditions": "CAMHB pH 7.3, 37° C., 18 to 20 hours, duplicate", "description": "(§1) A variant form of Streptomyces mobaraensis transglutaminase having the amino acid sequence depicted in SEQ ID NO:6 was prepared by literature methods with a hexa-his-tag to aid in purification (Javitt, et al. (2017) BMC Biotechnol. 17:23). The cells were grown in shake flasks, lysed by homogenization, and the Tgase variant (SEQ ID NO:6) was isolated from the cell debris by centrifugation. The resulting semi-purified enzyme (clarified lysate) were compared on an SDS-PAGE gel, by spectroscopy, and activity for concentration of active enzyme. The Tgase variant (SEQ ID NO:6) was further purified by affinity column on a Ni-IMAC resin prior to MIC assay. Tgase activity was measured in the examples herein using a colorimetric hydroxamate activity assay (Folk and Cole (1965) J Biol Chemistry 240(7):2951-2960). The enzyme was diluted to a working stock concentration of 2 mg/mL in CAMHB or RPMI media (bacterial or fungal media). This was then 2-fold serial diluted ten times in the appropriate media in a 96-well master plate to generate 2× starting concentrations for MIC testing.\n(§2) Strains were acquired from the American Type Culture Collection (ATCC) (Manassas, VA) and maintained as −80° C. frozen glycerol stocks: S. aureus ATCC 6538, E. coli ATCC 8739, P. aeruginosa ATCC 9027, C. albicans ATCC 10231, and A. brasiliensis ATCC 16404. […]"}, "B. subtilis BGSC 1A1276": {"test_system": "B. subtilis BGSC 1A1276", "assay": "MIC determination, B. subtilis", "conditions": "duplicate, listed as Tgase variant (SEQ ID NO: 6)", "description": "as §1, §2"}, "[1]": {"test_system": "A. brasiliensis ATCC 16404", "assay": "Minimum fungicidal concentration (MFC), A. brasiliensis", "conditions": "no colonies recovered on SDA, duplicate", "description": "Minimum fungicidal concentration (MFC) was determined by plating 10 microliters of liquid from each MFC test solution on the appropriate agar media for each test strain. The liquid was allowed to air dry in a biosafety cabinet, then the agar plates were incubated under the appropriate conditions: A. brasiliensis and C. albicans were grown on Sabouraud Dextrose Agar (SDA) plates. A. brasiliensis was grown at 25° C. for 5 to 7 days, while C. albicans was grown at 37° C. for 24 to 48 hours. Colony formation was then assessed. MFC is defined as the lowest concentration of the Tgase (SEQ ID NO:6) in which no colonies were recovered."}, "[2]": {"test_system": "C. parapsilosis ATCC 22019", "assay": "Minimum fungicidal concentration (MFC), C. parapsilosis", "conditions": "no colonies recovered, duplicate, listed as Tgase variant (SEQ ID NO: 6)"}, "[3]": {"test_system": "Yeast or bacterial starter cultures", "assay": "Tgase biocidal activity on yeast or bacterial cultures (Example 2)", "conditions": "where biocidal activity could be observed with both enzymes", "description": "A variant form of Streptomyces mobaraensis transglutaminase having the amino acid sequence depicted in SEQ ID NO:6 was prepared by literature methods (Javitt, et al. (2017) BMC Biotechnol. 17:23) as previously described. Tgase activity was measured using the colorimetric hydroxamate activity assay (Folk and Cole (1965) J Biol Chemistry 240(7):2951-2960). Tgase cytotoxic activity was assessed either using OD600 or a commercially available kit (BacTiter-Glo™, Promega®, following manufacturer's protocol).\nYeast or bacterial starter cultures were grown as described previously. Tgase (SEQ ID NO:6) was added to each culture at 0.001-1 weight percent. The cultures were grown overnight at 30° C.-37° C. and growth curves were measured by a BioTek® Synergy Plate Reader."}}, "note": "Several values for one entry are separate records, joined by “and”; a condition that tells them apart may be missing. Identical values can stand only once.", "data": [{"molecule": "B1", "values": [{"measurement": "growth inhibition", "setting": "E. coli ATCC 8739", "value": 85.0, "unit": "%"}, {"measurement": "MIC", "setting": "S. aureus ATCC 6538", "value": ">1,000 μg/mL"}, {"measurement": "MIC", "setting": "B. subtilis BGSC 1A1276", "value": "80 µg/mL and 120 µg/mL"}, {"measurement": "MFC", "setting": "[1]", "value": 125, "unit": "µg/mL"}, {"measurement": "MFC", "setting": "[2]", "value": "250 µg/mL and 125 µg/mL"}, {"measurement": "potency relative to Tgase SEQ ID NO:1", "setting": "[3]", "value": 10, "unit": "fold"}]}]}
